The data set concerns the molecule itself. Briefly: negative-stain electron microscopy.

B1: HAdV-5 penton base protein, recombinant, soluble (natural protein)
chain: MRRAAMYEEGPPPSYESVVSAAPVAAALGSPFDAPLDPPFVPPRYLRPTGGRNSIRYSELAPLFDTTRVYLVDNKSTDVASLNYQNDHSNFLTTVIQNNDYSPGEASTQTINLDDRSHWGGDLKTILHTNMPNVNEFMFTNKFKARVMVSRLPTKDNQVELKYEWVEFTLPEGNYSETMTIDLMNNAIVEHYLKVGRQNGVLESDIGVKFDTRNFRLGFDPVTGLVMPGVYTNEAFHPDIILLPGCGVDFTHSRLSNLLGIRKRQPFQEGFRITYDDLEGGNIPALLDVDAYQASLKDDTEQGGGGAGGSNSSGSGAEENSNAAAAAMQPVEDMNDHAIRGDTFATRAEEKRAEAEAAAEAAAPAAQPEVEKPQKKPVIKPLTEDSKKRSYNLISNDSTFTQYRSWYLAYNYGDPQTGIRSWTLLCTPDVTCGSEQVYWSLPDMMQDPVTFRSTRQISNFPVVGAELLPVHSKSFYNDQAVYSQLIRQFTSLTHVFNRFPENQILARPPAPTITTVSENVPALTDHGTLPLRNSIGGVQRVTITDARRRTCPYVYKALGIVSPRVLSSRTF
notes: also called 5PB; source: Sf9 (baculovirus, pFastBac HT A), purified (Ni-NTA agarose, HiTrap Q-sepharose)
With B1, the “stoichiometry N” value was determined as 5.

The values above are taken from paper PMC6030200 (Scientific Reports, 2018).
